First the molecules themselves.
B1: DLC1 (parent)
chain: KRSWEEHVTHWMGQPFNSDDRNTA
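Also: lentivirally expressed fusions sorted by FACS into six bins by GFP to DsRed ratio, PSI derived from sequencing read proportions per bin multiplied by bin number.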

The data set covers variants of B1. Put plainly: protein stability index of a GFP-peptide fusion (GPS, HEK-293T) (PSI 1-6); higher = more stable. The conditions noted are these: c terminus: a fixed tail appended.
With KRSWEEHLTHWMGQPFNSDDRNTA [V8L], the protein stability index was 3.31. As to KRSWEEHVTHEMGQPFNSDDRNTA [W11E], the protein stability index was found to be 1.57.

Take KRSWEEHVTHCMGQPFNSDDRNTA [W11C]: the protein stability index came out at 2.48. The result for KRSWEEHVTHHMGQPFNSDDRNTA [W11H] reads 2.95; that for KRSWEEHVTHIMGQPFNSDDRNTA [W11I], 3.01; that for KRSWEEHVTHDMGQPFNSDDRNTA [W11D], 2.33. For the variant KRSWEEHVTHAMGQPFNSDDRNTA [W11A], the protein stability index turned out to be 2.97.

As to KRSWEEHVTHFMGQPFNSDDRNTA [W11F], the protein stability index was found to be 2.7. For the variant KRSWEEHVTHGMGQPFNSDDRNTA [W11G], the protein stability index came to 2.69.

Regarding KRSWEEHVTEWMGQPFNSDDRNTA [H10E], the protein stability index stood at 3.1.

Take KRSWEEHVTFWMGQPFNSDDRNTA [H10F]: the protein stability index turned out to be 1.92.

With KRSWEEHVTIWMGQPFNSDDRNTA [H10I], the protein stability index was 1.95. For KRSWEEHVTPWMGQPFNSDDRNTA [H10P], the protein stability index was found to be 3.52.

For the variant KRSWEEHVTVWMGQPFNSDDRNTA [H10V], the protein stability index came to 2.16. Regarding KRSWEEHVTSWMGQPFNSDDRNTA [H10S], the protein stability index amounted to 2.73. The result for KRSWEEHVTMWMGQPFNSDDRNTA [H10M] reads 1.99; that for KRSWEEHVTDWMGQPFNSDDRNTA [H10D], 3.39; that for KRSWEEHVTLWMGQPFNSDDRNTA [H10L], 2.33. The result for KRSWEEHVTWWMGQPFNSDDRNTA [H10W] reads 2.31; that for KRSWEEHVTCWMGQPFNSDDRNTA [H10C], 2.92.

As to KRSWEEHVTYWMGQPFNSDDRNTA [H10Y], the protein stability index worked out at 1.92. Turning to KRSWEEHVTAWMGQPFNSDDRNTA [H10A], the protein stability index is 2.17.

As to KRSWEEHVTKWMGQPFNSDDRNTA [H10K], the protein stability index stood at 2.53. On to KRSWEEHVTNWMGQPFNSDDRNTA [H10N], for which the protein stability index is 2.58. On to KRSWEEHVTTWMGQPFNSDDRNTA [H10T], for which the protein stability index was 2.32. As to KRSWEEHVTRWMGQPFNSDDRNTA [H10R], the protein stability index amounted to 2.19. The result for KRSWEEHVTGWMGQPFNSDDRNTA [H10G] reads 2.57; that for KRSWEEHVTQWMGQPFNSDDRNTA [H10Q], 2.56; that for KRSWEEHVSHWMGQPFNSDDRNTA [T9S], 2.38.

As for KRSWEEHVCHWMGQPFNSDDRNTA [T9C], the protein stability index worked out at 2.6. The result for KRSWEEHVIHWMGQPFNSDDRNTA [T9I] reads 2.62; that for KRSWEEHVAHWMGQPFNSDDRNTA [T9A], 2.97.

For KRSWEEHVVHWMGQPFNSDDRNTA [T9V], the protein stability index stood at 2.75. Consider KRSWEEHVNHWMGQPFNSDDRNTA [T9N], for which the protein stability index worked out at 3.75.

With KRSWEEHVQHWMGQPFNSDDRNTA [T9Q], the protein stability index came out at 3.6. With KRSWEEHVKHWMGQPFNSDDRNTA [T9K], the protein stability index is 3.59. With KRSWEEHVHHWMGQPFNSDDRNTA [T9H], the protein stability index came to 3.46. Take KRSWEEHVPHWMGQPFNSDDRNTA [T9P]: the protein stability index was 3.54.

With KRSWEEHVRHWMGQPFNSDDRNTA [T9R], the protein stability index worked out at 3.1.

On to KRSWEEHVGHWMGQPFNSDDRNTA [T9G], for which the protein stability index is 3.14. As for KRSWEEHVLHWMGQPFNSDDRNTA [T9L], the protein stability index worked out at 2.53. On to KRSWEEHVFHWMGQPFNSDDRNTA [T9F], for which the protein stability index amounted to 2.11. Regarding KRSWEEHVDHWMGQPFNSDDRNTA [T9D], the protein stability index came to 4.32.

In the case of KRSWEEHVMHWMGQPFNSDDRNTA [T9M], the protein stability index came to 3.48. To KRSWEEHVEHWMGQPFNSDDRNTA [T9E] belongs 3.84; to KRSWEEHVYHWMGQPFNSDDRNTA [T9Y], 3.04. In the case of KRSWEEHVWHWMGQPFNSDDRNTA [T9W], the protein stability index was 2.67. On to KRSQEEHVTHWMGQPFNSDDRNTA [W4Q], for which the protein stability index amounted to 4.71. KRSKEEHVTHWMGQPFNSDDRNTA [W4K]: the protein stability index was found to be 4.48. With KRSIEEHVTHWMGQPFNSDDRNTA [W4I], the protein stability index came out at 4.41.

KRSCEEHVTHWMGQPFNSDDRNTA [W4C]: the protein stability index amounted to 4.2. On to KRSNEEHVTHWMGQPFNSDDRNTA [W4N], for which the protein stability index was determined as 4.95.

Turning to KRSDEEHVTHWMGQPFNSDDRNTA [W4D], the protein stability index was 5.21. Regarding KRSSEEHVTHWMGQPFNSDDRNTA [W4S], the protein stability index stood at 4.32. Turning to KRSEEEHVTHWMGQPFNSDDRNTA [W4E], the protein stability index was determined as 5.05.

On to KRSAEEHVTHWMGQPFNSDDRNTA [W4A], for which the protein stability index is 4.41. As to KRSPEEHVTHWMGQPFNSDDRNTA [W4P], the protein stability index came out at 4.45. For the variant KRSTEEHVTHWMGQPFNSDDRNTA [W4T], the protein stability index was found to be 4.76. In the case of KRSHEEHVTHWMGQPFNSDDRNTA [W4H], the protein stability index was 4.44. Turning to KRSFEEHVTHWMGQPFNSDDRNTA [W4F], the protein stability index came to 4.09. Take KRSMEEHVTHWMGQPFNSDDRNTA [W4M]: the protein stability index turned out to be 3.95.

With KRSYEEHVTHWMGQPFNSDDRNTA [W4Y], the protein stability index is 4.08.

As to KRSLEEHVTHWMGQPFNSDDRNTA [W4L], the protein stability index came to 3.45. On to KRSVEEHVTHWMGQPFNSDDRNTA [W4V], for which the protein stability index came to 4.36. Take KRSGEEHVTHWMGQPFNSDDRNTA [W4G]: the protein stability index came to 4.38.

Consider KRSREEHVTHWMGQPFNSDDRNTA [W4R], for which the protein stability index turned out to be 4.62.

As to SRSWEEHVTHWMGQPFNSDDRNTA [K1S], the protein stability index was 3.46.

On to WRSWEEHVTHWMGQPFNSDDRNTA [K1W], for which the protein stability index was 2.49. The result for TRSWEEHVTHWMGQPFNSDDRNTA [K1T] reads 3.35.

As for VRSWEEHVTHWMGQPFNSDDRNTA [K1V], the protein stability index worked out at 2.95. QRSWEEHVTHWMGQPFNSDDRNTA [K1Q]: the protein stability index is 3.76. As to YRSWEEHVTHWMGQPFNSDDRNTA [K1Y], the protein stability index is 2.81. On to PRSWEEHVTHWMGQPFNSDDRNTA [K1P], for which the protein stability index came to 3.6.

RRSWEEHVTHWMGQPFNSDDRNTA [K1R]: the protein stability index was determined as 2.99.

With NRSWEEHVTHWMGQPFNSDDRNTA [K1N], the protein stability index is 3.63. Regarding KTSWEEHVTHWMGQPFNSDDRNTA [R2T], the protein stability index turned out to be 3.7. Consider KCSWEEHVTHWMGQPFNSDDRNTA [R2C], for which the protein stability index was determined as 2.52. To KESWEEHVTHWMGQPFNSDDRNTA [R2E] belongs 3.61. As for KVSWEEHVTHWMGQPFNSDDRNTA [R2V], the protein stability index was found to be 3.26. In the case of KWSWEEHVTHWMGQPFNSDDRNTA [R2W], the protein stability index stood at 2.98. Take KFSWEEHVTHWMGQPFNSDDRNTA [R2F]: the protein stability index was found to be 3.62. Take KMSWEEHVTHWMGQPFNSDDRNTA [R2M]: the protein stability index was 2.79. For KASWEEHVTHWMGQPFNSDDRNTA [R2A], the protein stability index came to 3.11. As to KSSWEEHVTHWMGQPFNSDDRNTA [R2S], the protein stability index is 3.79. For KYSWEEHVTHWMGQPFNSDDRNTA [R2Y], the protein stability index amounted to 3.25. As to KQSWEEHVTHWMGQPFNSDDRNTA [R2Q], the protein stability index was determined as 3.11. Turning to KKSWEEHVTHWMGQPFNSDDRNTA [R2K], the protein stability index came to 2.6.

Take KPSWEEHVTHWMGQPFNSDDRNTA [R2P]: the protein stability index was 3.37. Take KDSWEEHVTHWMGQPFNSDDRNTA [R2D]: the protein stability index stood at 4.37. On to KGSWEEHVTHWMGQPFNSDDRNTA [R2G], for which the protein stability index is 3.61.

As for KHSWEEHVTHWMGQPFNSDDRNTA [R2H], the protein stability index stood at 3.08. For the variant KLSWEEHVTHWMGQPFNSDDRNTA [R2L], the protein stability index is 3.28. With KISWEEHVTHWMGQPFNSDDRNTA [R2I], the protein stability index turned out to be 2.71. In the case of KNSWEEHVTHWMGQPFNSDDRNTA [R2N], the protein stability index is 3.67.

(Values after the supplement of paper PMC10567573.)
